In PMC9352680, “A comprehensive thermodynamic model for RNA binding by the Saccharomyces cerevisiae Pumilio protein PUF4”:

T1: PUF4 RNA-binding domain (Saccharomyces cerevisiae, UniProt P25339 537-888)
T1 sequence: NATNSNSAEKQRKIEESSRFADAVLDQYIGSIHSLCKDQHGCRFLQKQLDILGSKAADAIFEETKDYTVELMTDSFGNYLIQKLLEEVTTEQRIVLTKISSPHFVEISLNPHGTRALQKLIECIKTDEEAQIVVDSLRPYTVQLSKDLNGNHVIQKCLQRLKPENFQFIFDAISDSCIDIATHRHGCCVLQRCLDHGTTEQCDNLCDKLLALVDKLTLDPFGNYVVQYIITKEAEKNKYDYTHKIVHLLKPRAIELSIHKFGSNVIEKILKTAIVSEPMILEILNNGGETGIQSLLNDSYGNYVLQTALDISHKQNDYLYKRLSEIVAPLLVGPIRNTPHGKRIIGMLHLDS


What follows are binders tested against T1, PUF4 RNA-binding domain (assay: Mg; RNA-MaP; 20 mM Na-HEPES pH 7.4, 30 mM KOAc, 0.75 mM MgCl2, 0.1% Tween-20, 5% glycerol, 0.1 mg/mL BSA, 2 mM DTT; 25 C; 0.0125-409.6 nM protein). Conditions: tags: N-His6-TEV cleaved; C-SNAP kept, Cy3B-labelled; label: tethered on chip by stalled RNA polymerase.

Row | Binder | Kd
1 | UCUCUUCUUCCUCGUAUAUAUAUCUCUU (ssRNA) [Ie_S1_P3E.2_K3.1_C3.2_H3.1_[+1CCTC]_A3.1_F3.1_T3.2] | 475 nM
2 | UCUCUUUGUAAUUUUAUCUCUU (ssRNA) [Ib_S1_P5E.1_K5.1_C5.1_H5.1_A5.1_[T5A]_[A7T]_F5.1_T5.1] | 5.31 nM
3 | UCUCUUCCCUUGUAUAUAUAUCUCUU (ssRNA) [Ie_S1_P3E.2_K3.1_C3.2_[+-2CC]_H3.1_A3.1_F3.1_T3.2] | 7.06 nM
4 | UCUCUUCCUCUUUGUAUAUAUAUCUCUU (ssRNA) [Ie_S1_P3E.2_K3.1_C3.2_[+-2CTCT]_H3.1_A3.1_F3.1_T3.2] | 4.97 nM
5 | UCUCUUCUUCCCUGUAUAUAUAUCUCUU (ssRNA) [Ie_S1_P3E.2_K3.1_C3.2_H3.1_[+1CCCT]_A3.1_F3.1_T3.2] | 4.02 nM
6 | UCUCUUCUUUGUAUAUAUAUCUCUU (ssRNA) [Ie_S1_P3E.2_K3.1_C3.2_[+-2T]_H3.1_A3.1_F3.1_T3.2] | 4.55 nM
7 | Id_iii_S4_P4E.8_K4.4_C4.3_[T-1C]_H4.1_A4.2_F4.1_T4.2 (ssRNA) RNA: UUUGACAACUGAUCGUUCUUUCUUCCUGUAUUUUAGUUUCUUUCUCGAUCAGUUGUCUUU | 0.819 nM
8 | Id_iii_S4_P4E.8_K4.4_C4.3_H4.1_A4.2_F4.1_T4.2_[G10C] (ssRNA) RNA: UUUGACAACUGAUCGUUCUUUCUUCUUGUAUUUUACUUUCUUUCUCGAUCAGUUGUCUUU | 1.79 nM
9 | Id_iii_S4_P4E.8_K4.4_C4.3_H4.1_A4.2_F4.1_T4.2_[T11C] (ssRNA) RNA: UUUGACAACUGAUCGUUCUUUCUUCUUGUAUUUUAGCUUCUUUCUCGAUCAGUUGUCUUU | 1.04 nM
10 | UCUCUUCUUUUCCUGUAUAUAUAUCUCUU (ssRNA) [Ie_S1_P3E.2_K3.1_C3.2_H3.1_[+1TTCCT]_A3.1_F3.1_T3.2] | 5.37 nM
11 | UCUCUUCCUCUCUUGUAUAUAUAUCUCUU (ssRNA) [Ie_S1_P3E.2_K3.1_C3.2_[+-2CTCTC]_H3.1_A3.1_F3.1_T3.2] | 7.46 nM
12 | UCUCUUCUUCUCUGUAUAUAUAUCUCUU (ssRNA) [Ie_S1_P3E.2_K3.1_C3.2_H3.1_[+1CTCT]_A3.1_F3.1_T3.2] | 4.16 nM
13 | UCUCUUCUUCUGUAUAUAUAUCUCUU (ssRNA) [Ie_S1_P3E.2_K3.1_C3.2_H3.1_[+1CT]_A3.1_F3.1_T3.2] | 4.75 nM
14 | UCUCUUCUUGCCUAUAUAUAUCUCUU (ssRNA) [Ie_S1_P3E.2_K3.1_C3.2_H3.1_[+2CC]_A3.1_F3.1_T3.2] | 1170 nM
15 | UCUCUUCUUUCUCGUAUAUAUAUCUCUU (ssRNA) [Ie_S1_P3E.2_K3.1_C3.2_H3.1_[+1TCTC]_A3.1_F3.1_T3.2] | 261 nM
16 | UCUCUUCUUUUUGUAUAUAUAUCUCUU (ssRNA) [Ie_S1_P3E.2_K3.1_C3.2_H3.1_[+1TTT]_A3.1_F3.1_T3.2] | 5.49 nM
17 | UCUCUUCUUUUGUAUAUAUAUCUCUU (ssRNA) [Ie_S1_P3E.2_K3.1_C3.2_H3.1_[+1TT]_A3.1_F3.1_T3.2] | 5.47 nM
18 | UCUCUUCUCCCUUGUAUAUAUAUCUCUU (ssRNA) [Ie_S1_P3E.2_K3.1_C3.2_[+-1CCCT]_H3.1_A3.1_F3.1_T3.2] | 2.61 nM
19 | UCUCUUUGUACUCUUAUCUCUU (ssRNA) [Ib_S1_P5E.1_K5.1_C5.1_H5.1_A5.1_[T5C]_[A7C]_F5.1_T5.1] | 9.68 nM
20 | UCUCUUCUUCCUUGUAUAUAUAUCUCUU (ssRNA) [Ie_S1_P3E.2_K3.1_C3.2_[+-2TTCC]_H3.1_A3.1_F3.1_T3.2] | 6.09 nM

Row | Binder | Kd
21 | UCUCUUCCCCUUUUGUAUAUAUAUCUCUU (ssRNA) [Ie_S1_P3E.2_K3.1_C3.2_[+-2CCCTT]_H3.1_A3.1_F3.1_T3.2] | 5.86 nM
22 | UCUCUUCUUCCUUUGUAUAUAUAUCUCUU (ssRNA) [Ie_S1_P3E.2_K3.1_C3.2_[+-2TTCCT]_H3.1_A3.1_F3.1_T3.2] | 6.01 nM
23 | UCUCUUCUUCUCUUGUAUAUAUAUCUCUU (ssRNA) [Ie_S1_P3E.2_K3.1_C3.2_[+-1TCTCT]_H3.1_A3.1_F3.1_T3.2] | 5.94 nM
24 | UCUCUUCUCCUCUUGUAUAUAUAUCUCUU (ssRNA) [Ie_S1_P3E.2_K3.1_C3.2_[+-1CCTCT]_H3.1_A3.1_F3.1_T3.2] | 3.91 nM
25 | UCUCUUCUUUCCUUGUAUAUAUAUCUCUU (ssRNA) [Ie_S1_P3E.2_K3.1_C3.2_[+-1TTCCT]_H3.1_A3.1_F3.1_T3.2] | 4.2 nM
26 | UCUCUUCUCUCUGUAUAUAUAUCUCUU (ssRNA) [Ie_S1_P3E.2_K3.1_C3.2_[+-1CTC]_H3.1_A3.1_F3.1_T3.2] | 4.2 nM
27 | UCUCUUCUUCUCGUAUAUAUAUCUCUU (ssRNA) [Ie_S1_P3E.2_K3.1_C3.2_H3.1_[+1CTC]_A3.1_F3.1_T3.2] | 449 nM
28 | UCUCUUCUUCCUGUAUAUAUAUCUCUU (ssRNA) [Ie_S1_P3E.2_K3.1_C3.2_H3.1_[+1CCT]_A3.1_F3.1_T3.2] | 5.41 nM
29 | UCUCUUCUUUCCGUAUAUAUAUCUCUU (ssRNA) [Ie_S1_P3E.2_K3.1_C3.2_H3.1_[+1TCC]_A3.1_F3.1_T3.2] | 534 nM
30 | UCUCUUCUUCCUCUGUAUAUAUAUCUCUU (ssRNA) [Ie_S1_P3E.2_K3.1_C3.2_H3.1_[+1CCTCT]_A3.1_F3.1_T3.2] | 5.08 nM
31 | UCUCUUUGUAAUGUUAUCUCUU (ssRNA) [Ib_S1_P5E.1_K5.1_C5.1_H5.1_A5.1_[T5A]_[A7G]_F5.1_T5.1] | 12.7 nM
32 | UCUCUUCUCUCUUGUAUAUAUAUCUCUU (ssRNA) [Ie_S1_P3E.2_K3.1_C3.2_[+-2TCTC]_H3.1_A3.1_F3.1_T3.2] | 4.58 nM
33 | UCUCUUCUUGUCUAUAUAUAUCUCUU (ssRNA) [Ie_S1_P3E.2_K3.1_C3.2_H3.1_[+2TC]_A3.1_F3.1_T3.2] | 844 nM
34 | UCUCUUUGUACUUUUAUCUCUU (ssRNA) [Ib_S1_P5E.1_K5.1_C5.1_H5.1_A5.1_[T5C]_[A7T]_F5.1_T5.1] | 3.92 nM
35 | UCUCUUCUCUUGUAUAUAUAUCUCUU (ssRNA) [Ie_S1_P3E.2_K3.1_C3.2_[+-2TC]_H3.1_A3.1_F3.1_T3.2] | 4.74 nM
36 | UCUCUUCUUGUUAUAUAUAUCUCUU (ssRNA) [Ie_S1_P3E.2_K3.1_C3.2_H3.1_[+2T]_A3.1_F3.1_T3.2] | 29.7 nM
37 | UCUCUUCUUUCUGUAUAUAUAUCUCUU (ssRNA) [Ie_S1_P3E.2_K3.1_C3.2_H3.1_[+1TCT]_A3.1_F3.1_T3.2] | 3.95 nM
38 | UCUCUUCUUCCGUAUAUAUAUCUCUU (ssRNA) [Ie_S1_P3E.2_K3.1_C3.2_H3.1_[+1CC]_A3.1_F3.1_T3.2] | 1270 nM
39 | UCUCUUUGUAAUCUUAUCUCUU (ssRNA) [Ib_S1_P5E.1_K5.1_C5.1_H5.1_A5.1_[T5A]_[A7C]_F5.1_T5.1] | 12.1 nM
40 | UCUCUUCCCCUUUGUAUAUAUAUCUCUU (ssRNA) [Ie_S1_P3E.2_K3.1_C3.2_[+-2CCCT]_H3.1_A3.1_F3.1_T3.2] | 3.73 nM

Row | Binder | Kd
41 | UCUCUUCUUCUCUCGUAUAUAUAUCUCUU (ssRNA) [Ie_S1_P3E.2_K3.1_C3.2_H3.1_[+1CTCTC]_A3.1_F3.1_T3.2] | 512 nM
42 | UCUCUUCUCCCUUUGUAUAUAUAUCUCUU (ssRNA) [Ie_S1_P3E.2_K3.1_C3.2_[+-1CCCTT]_H3.1_A3.1_F3.1_T3.2] | 6.24 nM
43 | UCUCUUCUUUCUCUGUAUAUAUAUCUCUU (ssRNA) [Ie_S1_P3E.2_K3.1_C3.2_H3.1_[+1TCTCT]_A3.1_F3.1_T3.2] | 4.87 nM
44 | UCUCUUCUCCUUGUAUAUAUAUCUCUU (ssRNA) [Ie_S1_P3E.2_K3.1_C3.2_[+-2TCC]_H3.1_A3.1_F3.1_T3.2] | 4.39 nM
45 | UCUCUUCCUUUUGUAUAUAUAUCUCUU (ssRNA) [Ie_S1_P3E.2_K3.1_C3.2_[+-2CTT]_H3.1_A3.1_F3.1_T3.2] | 5.14 nM
46 | UCUCUUCUUCUUGUAUAUAUAUCUCUU (ssRNA) [Ie_S1_P3E.2_K3.1_C3.2_[+-1TCT]_H3.1_A3.1_F3.1_T3.2] | 4.28 nM
47 | Id_iii_S4_P5E.5_K5.1_C5.3_H5.1_A5.1_F5.1_T5.2_[A12C] (ssRNA) RNA: UUUGACAACUGAUCGUUCUUUCUUCUUGUAUUAUUAUCUUCUUUCUCGAUCAGUUGUCUUU | 1.71 nM
48 | Id_iii_S4_P5E.7_K5.3_C5.3_[C-2T]_H5.3_A5.1_F5.1_T5.2 (ssRNA) RNA: UUUGACAACUGAUCGUUCUUUCUUUUACACUUAUUAUAUUCUUUCUCGAUCAGUUGUCUUU | 513 nM
49 | Id_iii_S4_P5E.7_K5.3_C5.3_[T-1C]_H5.3_A5.1_F5.1_T5.2 (ssRNA) RNA: UUUGACAACUGAUCGUUCUUUCUUCCACACUUAUUAUAUUCUUUCUCGAUCAGUUGUCUUU | 543 nM
50 | Id_iii_S4_P5E.7_K5.3_C5.3_[C-2A]_H5.3_A5.1_F5.1_T5.2 (ssRNA) RNA: UUUGACAACUGAUCGUUCUUUCUUAUACACUUAUUAUAUUCUUUCUCGAUCAGUUGUCUUU | 1020 nM
51 | Id_iii_S4_P5E.8_K5.4_C5.3_[C-2G]_H5.1_A5.2_F5.1_T5.2 (ssRNA) RNA: UUUGACAACUGAUCGUUCUUUCUUGUUGUAAUAUUAUAUUCUUUCUCGAUCAGUUGUCUUU | 11.1 nM
52 | Id_iii_S4_P5E.8_K5.4_C5.3_H5.1_A5.2_F5.1_T5.2_[A12C] (ssRNA) RNA: UUUGACAACUGAUCGUUCUUUCUUCUUGUAAUAUUAUCUUCUUUCUCGAUCAGUUGUCUUU | 2.73 nM
53 | Id_iii_S4_P5E.5_K5.1_C5.3_H5.1_A5.1_F5.1_T5.2_[A12T] (ssRNA) RNA: UUUGACAACUGAUCGUUCUUUCUUCUUGUAUUAUUAUUUUCUUUCUCGAUCAGUUGUCUUU | 1.28 nM
54 | UCUCUUCUCUCUUUGUAUAUAUAUCUCUU (ssRNA) [Ie_S1_P3E.2_K3.1_C3.2_[+-2TCTCT]_H3.1_A3.1_F3.1_T3.2] | 4.28 nM
55 | UCUCUUCUCCUGUAUAUAUAUCUCUU (ssRNA) [Ie_S1_P3E.2_K3.1_C3.2_[+-1CC]_H3.1_A3.1_F3.1_T3.2] | 4.99 nM
56 | UCUCUUCUCUCUCUGUAUAUAUAUCUCUU (ssRNA) [Ie_S1_P3E.2_K3.1_C3.2_[+-1CTCTC]_H3.1_A3.1_F3.1_T3.2] | 3.89 nM
57 | UCUCUUCCCUCUUGUAUAUAUAUCUCUU (ssRNA) [Ie_S1_P3E.2_K3.1_C3.2_[+-2CCTC]_H3.1_A3.1_F3.1_T3.2] | 7.14 nM
58 | UCUCUUCCUCUUGUAUAUAUAUCUCUU (ssRNA) [Ie_S1_P3E.2_K3.1_C3.2_[+-2CTC]_H3.1_A3.1_F3.1_T3.2] | 7.17 nM
